Here are results for 1 variant from IntAct's records for PubMed 21151104.

B1: T-box transcription factor TBX21 (Mus musculus), Q9JKD8 (parent)
chain: MGIVEPGCGDMLTGTEPMPSDEGRGPGADQQHRFFYPEPGAQDPTDRRAGSSLGTPYSGGALVPAAPGRFLGSFAYPPRAQVAGFPGPGEFFPPPAGAEGYPPVDGYPAPDPRAGLYPGPREDYALPAGLEVSGKLRVALSNHLLWSKFNQHQTEMIITKQGRRMFPFLSFTVAGLEPTSHYRMFVDVVLVDQHHWRYQSGKWVQCGKAEGSMPGNRLYVHPDSPNTGAHWMRQEVSFGKLKLTNNKGASNNVTQMIVLQSLHKYQPRLHIVEVNDGEPEAACSASNTHVFTFQETQFIAVTAYQNAEITQLKIDNNPFAKGFRENFESMYASVDTSVPSPPGPNCQLLGGDPFSPLLSNQYPVPSRFYPDLPGQPKDMISQPYWLGTPREHSYEAEFRAVSMKPTLLPSAPGPTVPYYRGQDVLAPGAGWPVAPQYPPKMSPAGWFRPMRTLPMDPGLGSSEEQGSSPSLWPEVTSLQPEPSDSGLGEGDTKRRRISPYPSSGDSSSPAGAPSPFDKETEGQFYNYFPN

In the assay the parent is B1. Particulars: with runx1_mouse Runx1, Q03347.
Chain of runx1_mouse Runx1, Q03347 (Q03347 whole entry): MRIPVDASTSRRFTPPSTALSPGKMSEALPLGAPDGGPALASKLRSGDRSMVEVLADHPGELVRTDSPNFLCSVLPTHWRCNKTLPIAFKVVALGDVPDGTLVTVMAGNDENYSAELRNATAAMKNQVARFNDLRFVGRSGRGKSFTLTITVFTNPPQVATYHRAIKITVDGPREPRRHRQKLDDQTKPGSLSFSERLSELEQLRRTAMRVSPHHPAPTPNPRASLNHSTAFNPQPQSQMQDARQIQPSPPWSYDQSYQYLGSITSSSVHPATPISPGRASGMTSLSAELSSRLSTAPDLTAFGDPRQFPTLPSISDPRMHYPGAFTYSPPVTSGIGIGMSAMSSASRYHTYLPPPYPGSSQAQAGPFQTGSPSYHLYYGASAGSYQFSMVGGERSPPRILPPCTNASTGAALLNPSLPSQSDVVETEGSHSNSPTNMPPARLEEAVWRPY
Turning to MGIVEPGCGDMLTGTEPMPSDEGRGPGADQQHRFFYPEPGAQDPTDRRAGSSLGTPYSGGALVPAAPGRFLGSFAYPPRAQVAGFPGPGEFFPPPAGAEGYPPVDGYPAPDPRAGLYPGPREDYALPAGLEVSGKLRVALSNHLLWSKFNQHQTEMIITKQGRRMFPFLSFTVAGLEPTSHYRMFVDVVLVDQHHWRYQSGKWVQCGKAEGSMPGNRLYVHPDSPNTGAHWMRQEVSFGKLKLTNNKGASNNVTQMIVLQSLHKYQPRLHIVEVNDGEPEAACSASNTHVFTFQETQFIAVTAFQNAEITQLKIDNNPFAKGFRENFESMYASVDTSVPSPPGPNCQLLGGDPFSPLLSNQYPVPSRFYPDLPGQPKDMISQPYWLGTPREHSYEAEFRAVSMKPTLLPSAPGPTVPYYRGQDVLAPGAGWPVAPQYPPKMSPAGWFRPMRTLPMDPGLGSSEEQGSSPSLWPEVTSLQPEPSDSGLGEGDTKRRRISPYPSSGDSSSPAGAPSPFDKETEGQFYNYFPN [Y304F], the “effect of a mutation on the interaction” value was “disrupting interaction”.
